# T1: recombinant human GPR1 receptor (human, UniProt P46091 1-355)
# T1 sequence: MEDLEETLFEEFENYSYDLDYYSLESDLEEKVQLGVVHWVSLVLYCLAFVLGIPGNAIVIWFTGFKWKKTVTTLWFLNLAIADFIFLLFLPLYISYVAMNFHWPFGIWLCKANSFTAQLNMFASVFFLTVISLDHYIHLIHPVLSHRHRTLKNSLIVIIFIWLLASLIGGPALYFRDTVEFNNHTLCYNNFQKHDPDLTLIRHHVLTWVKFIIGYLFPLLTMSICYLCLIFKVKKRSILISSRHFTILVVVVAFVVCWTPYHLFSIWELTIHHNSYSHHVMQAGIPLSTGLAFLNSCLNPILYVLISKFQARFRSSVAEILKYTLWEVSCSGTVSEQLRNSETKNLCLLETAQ
# Biological target: T1, recombinant human GPR1 receptor
# Experiment: cell-based or functional assay
row,Molecule,"EC50 of beta-arrestin2 recruitment (agonistic activity), CHO-K1-hGPR1-Beta-arrestin 2 PathHunter cells [nM]"
1,d-Ser14-Humanin (peptide),92.8
2,MAPRGFSCLLLLTSEIDLPVKRRA [Humanin],60.9
3,MAPRGFSCLLLLTGEIDLPVKRRA [Gly14-Humanin],46.1
4,MAPRGFSALLLLTSEIDLPVKRRA [Ala8-Humanin],55.6

# Source: patent US20120202221A1 (ACTELION PHARMACEUTICALS, published 2012)
